Kd, binding signal and binding signal (% of bound DNA released) data for two sequences are collected here from paper PMC8210318.

Data set [1] has as its target T1, RPA heterotrimer (UniProt P27694+P15927+P35244). Kind of data set: fluorescence anisotropy. The note with it: EMSA: 10 mM Tris pH 7.5, 50 ug/ml BSA, 5% glycerol, 25 mM DTT, 37 C 10 min, 25 nM DNA, 5% TBE gel, anisotropy: same buffer, 30 C.
The target in data set [2] is T1, RPA heterotrimer. Kind of data set: EMSA. The note with it: 25 nM DNA, EMSA: 10 mM Tris pH 7.5, 50 ug/ml BSA, 5% glycerol, 25 mM DTT, 37 C 10 min, 5% TBE gel. A general note: In EMSA bound probe runs differently from free probe, usually more slowly.

T1 sequence (P27694 whole entry, chain 1 of 3): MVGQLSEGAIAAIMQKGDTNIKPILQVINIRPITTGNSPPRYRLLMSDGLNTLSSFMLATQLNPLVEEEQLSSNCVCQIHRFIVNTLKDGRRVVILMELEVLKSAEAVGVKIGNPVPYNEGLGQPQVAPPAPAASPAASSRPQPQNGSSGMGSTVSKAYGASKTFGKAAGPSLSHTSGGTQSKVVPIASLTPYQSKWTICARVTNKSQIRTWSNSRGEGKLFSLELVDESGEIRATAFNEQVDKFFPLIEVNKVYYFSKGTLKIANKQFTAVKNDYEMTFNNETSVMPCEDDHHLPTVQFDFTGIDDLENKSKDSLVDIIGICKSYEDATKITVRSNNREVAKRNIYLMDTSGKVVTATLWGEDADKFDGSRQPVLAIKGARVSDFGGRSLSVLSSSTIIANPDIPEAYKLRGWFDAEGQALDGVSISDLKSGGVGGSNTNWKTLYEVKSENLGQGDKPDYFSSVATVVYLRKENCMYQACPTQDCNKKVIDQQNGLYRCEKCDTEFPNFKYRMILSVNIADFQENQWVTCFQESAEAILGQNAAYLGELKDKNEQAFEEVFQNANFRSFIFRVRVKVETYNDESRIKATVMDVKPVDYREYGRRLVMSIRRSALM
T1 sequence (P15927 whole entry, chain 2 of 3): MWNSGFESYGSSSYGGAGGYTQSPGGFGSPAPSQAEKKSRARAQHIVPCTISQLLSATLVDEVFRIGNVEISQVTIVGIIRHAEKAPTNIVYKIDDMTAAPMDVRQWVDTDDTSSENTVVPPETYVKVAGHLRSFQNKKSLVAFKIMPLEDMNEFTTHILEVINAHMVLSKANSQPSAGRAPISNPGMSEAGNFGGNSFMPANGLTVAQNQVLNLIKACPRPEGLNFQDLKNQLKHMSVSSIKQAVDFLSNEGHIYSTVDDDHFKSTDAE
T1 sequence (P35244 whole entry, chain 3 of 3): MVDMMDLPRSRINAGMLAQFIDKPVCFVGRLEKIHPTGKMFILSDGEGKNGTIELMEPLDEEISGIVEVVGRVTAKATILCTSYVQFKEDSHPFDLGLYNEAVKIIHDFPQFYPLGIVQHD

By Kd is commonly meant the constant that tells how readily two partners part at equilibrium. A lower Kd goes with tighter binding. In the case of “GTCGGATCCTCTAGACAGCATCCATGATCACTGGCACTGGTAGAATTCGGC / CAACGTCATAGACGATTACATTGCTACATGGATGCTGTCTAGAGGATCCGA [fork-2 fluorescein]”, the dissociation constant Kd with RPA heterotrimer [1] (with 500 nM BSA as control) amounted to 45.2 nM; with RPA heterotrimer [1] (with 500 nM N-HelQ, which displaces RPA) it was 237 nM.

For “GTCGGATCCTCTAGACAGCATCCATGATCACTGGCACTGGTAGAATTCGGC / CAACGTCATAGACGATTACATTGCTACATGGATGCTGTCTAGAGGATCCGA [fork-2]”, in the data set with RPA heterotrimer [2] (12.5 nM RPA, anisotropy: same buffer, 30 C), the binding signal was 100 % bound. The binding signal (% of bound DNA released) with RPA heterotrimer [2] (N-HelQ titrated (up to 500 nM), anisotropy: same buffer …) was determined as 40.
